Data taken from US10328114B2, “Lung injury repair compositions and methods” (University of Iowa Research Foundation, priority 2015, dated 2019).
“Also recorded” adds a separate entry of the source. *: point of attachment. Myristoyl = CCCCCCCCCCCCCC(=O)*

Target: T1, PKCζ (Mus musculus, UniProt Q02956)
T1 construct: from tissue; host or cells: lungs of C57BL/6 mice (lung homogenates and frozen lung sections)
T1 sequence (Q02956 1-592): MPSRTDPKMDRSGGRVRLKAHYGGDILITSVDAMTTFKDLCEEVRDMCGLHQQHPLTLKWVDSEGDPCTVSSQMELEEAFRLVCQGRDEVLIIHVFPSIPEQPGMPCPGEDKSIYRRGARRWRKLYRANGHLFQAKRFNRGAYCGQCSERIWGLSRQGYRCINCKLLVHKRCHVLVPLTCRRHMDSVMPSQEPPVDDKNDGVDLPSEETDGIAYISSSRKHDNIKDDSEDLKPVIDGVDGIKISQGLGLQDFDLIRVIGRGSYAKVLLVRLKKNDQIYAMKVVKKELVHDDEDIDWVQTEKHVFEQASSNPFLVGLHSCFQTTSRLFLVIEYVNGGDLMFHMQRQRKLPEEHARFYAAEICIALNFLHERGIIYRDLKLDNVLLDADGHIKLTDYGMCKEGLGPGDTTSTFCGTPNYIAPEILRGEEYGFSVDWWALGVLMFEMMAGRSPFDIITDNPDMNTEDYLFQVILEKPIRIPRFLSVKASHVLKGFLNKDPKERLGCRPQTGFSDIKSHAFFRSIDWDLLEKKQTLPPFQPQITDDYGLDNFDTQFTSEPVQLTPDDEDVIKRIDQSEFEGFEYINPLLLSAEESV
Test: PKCζ activation (p-PKCζ) in lungs, bleomycin induced ALI mouse model, Western blot and immunofluorescence
Assay type: in vivo
Settings: for activation of PKC-ζ in vivo: lungs harvested at 1, 3 and 6 weeks, Western blot and immunofluorescence
Procedure: Mice were randomly divided into four groups: (i) control: PBS plus DMSO (1 μl/mouse) (ii) PKC-ζ pseudosubstrate inhibitor (PKC-ζ ps) (1 μg/mouse suspended in DMSO), a pharmacological inhibitor that competes for the pseudosubstrate domain which give specificity to several PKCζ isoforms (Hofmann, J. (1997). “The potential for isoenzyme-selective modulation of protein kinase C.” FASEB J 11(8): 649-669); (iii) bleomycin: bleomycin suspended in PBS (4 U/kg); and (iv) Bleomycin+PKCζi: bleomycin (4 U/kg) plus (1 μg/mouse) PKCζi. The above conditions were administered intratracheally (50 μL) to 6-8 wk-old mice after 2-5 min of anesthesia with 4% isoflurane via a precision Fortec vaporizer (Cyprane, Keighley, UK). Treatment with DMSO or PKCζi was administered every 72 hours and followed for up to 6 weeks. At 1, 3, and 6 weeks mice were euthanized and lungs harvested.
Animal protocols were approved by the Institutional Animal Care and Use Committee at the University of Iowa. C57BL/6 mice (Jackson Laboratories, Bar Harbor, Me.) were anesthetized followed by intratracheal instillation of: (A) Control (Ctrl): 1 μl of DMSO (Sigma, St. Louis, Mo.) plus 49 μl of PBS; (B) Bleomycin (Bleo): 1 μl of DMSO plus 49 μl of bleomycin (APP pharmaceuticals, LLC Schaumburg, Ill.) dissolved in PBS (4 U/kg); (C) Bleomycin/PKCζi (Bleo/PKCζi): 1 μg of PKCζi (Calbiochem EMD Biosciences, San Diego, Calif.) solubilized in 1 μl of DMSO plus 49 μl of bleomycin (4 U/Kg) dissolved in PBS (Calbiochem EMD Biosciences, San Diego, Calif.). After this treatment, all mice were instilled (50 μl) every 72 hours with 1 μl of DMSO plus 49 μl of PBS in the Ctrl and Bleo group or with 1 μg of PKCζi dissolved in 1 μl of DMSO plus 49 μl of PBS in the Bleo/PKCζi group for the duration of the experiment. Mice were treated for up to 6 weeks (FIG. 1A). All conditions had between 4 to 6 animals.
Western blot analysis was performed using Phospho-(Ser) PKCζ substrate rabbit monoclonal antibody (Cell Signaling, Beverly, Mass.), total PKCζ rabbit polyclonal antibody (Santa Cruz Biotechnology, Dallas, Tex.) and mature surfactant protein C (SPC) rabbit polyclonal antibody (Seven Hill Bioreagents, Cincinnati, Ohio).
After dissection, immunofluorescence labeling was performed on frozen mouse lung tissue sections with polyclonal anti p-PKCζ (Santa Cruz Biotechnology, Dallas, Tex.) or monoclonal β4 antibody (Clone 346-11a, BD Biosciences, San Jose, Calif.) (23). In addition, Terminal deoxynucleotidyltransferase dUTP nick end labeling (TUNEL) staining was performed on week 1 mouse lung tissue sections (24).

Substance: N-Myristoyl-Ser-Ile-Tyr-Arg-Arg-Gly-Ala-Arg-Arg-Trp-Arg-Lys-Leu-OH (Myristoyl-SIYRRGARRWRKL-OH; SMILES CCCCCCCCCCCCCC(=O)N[C@@H](CO)C(=O)N[C@H](C(=O)N[C@@H](Cc1ccc(O)cc1)C(=O)N[C@@H](CCCNC(=N)N)C(=O)N[C@@H](CCCNC(=N)N)C(=O)NCC(=O)N[C@@H](C)C(=O)N[C@@H](CCCNC(=N)N)C(=O)N[C@@H](CCCNC(=N)N)C(=O)N[C@@H](Cc1c[nH]c2ccccc12)C(=O)N[C@@H](CCCNC(=N)N)C(=O)N[C@@H](CCCCN)C(=O)N[C@@H](CC(C)C)C(=O)O)[C@@H](C)CC) [PKCζi]
- activation of PKC-ζ in vivo: prevents activation of PKCζ in vivo
- activation of PKC-ζ in vivo (listed as PKC-ζi): prevented the activation of PKC-ζ
- p-PKCζ / total PKCζ, Western blot densitometry of lung homogenates (week 1, PKCζi 1 μg intratracheal every 72 hours, vs Bleo group): prevented bleomycin induced increased ratio p-PKC/total PKCζ; also recorded: decreased p-PKCζ at week 1 compared to Bleo group
- p-PKCζ immunostaining intensity in lung (week 3 and 6, vs bleomycin group): did not have any increase in p-PKCζ at week 3; also recorded: decreased intensity in the Bleo/PKCζi group compared to bleomycin group at week 3 and 6
